# Measurements from paper PMC12002316 (Proceedings of the National Academy of Sciences of the …, 2025).
# B1: Chloroflexus aurantiacus F1FO ATP synthase c-subunit (natural protein, Chloroflexus aurantiacus J-10-fl, UniProt A9WGS9 1-76, looked up)
# chain: MEGLNLVATALAVGLGAIGPGVGIGIIVSGAVQAIGRNPEIENRVVTYMFIGIAFTEALAIFGLVIAFLIGFGVLQ
# Molecular target: the molecule itself
# Test: cryo-EM structure
protein,measurement,value
B1,stoichiometry N,10
